Experimental data from the nanobody polyreactivity screen of Harvey et al. (2022).

Test: yeast display, Sf9 membrane polyspecificity reagent, FACS + sequencing; frameworks hold sequencing errors
Outline: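 Galactose induction of a Saccharomyces cerevisiae BJ5465 synthetic nanobody display library ran 36–48 hours. The cells were then stained for 1 hour at 4 °C with 10% biotinylated, detergent-solubilized Sf9 membrane reagent, pulled down on streptavidin microbeads and FACS-sorted into low and high (top ~1%) gates on expression and reagent-binding fluorescence. Labels for polyreactivity follow the gate of origin.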

Row | Sequence | polyreactivity (PSR sort gate)
1 | QVQLVESGGGIVQAGGSLRLSCAASGSIFIDYAMGWYRQAPGKERELVAAISWRGGSTYYADSVKGRFTISRDNAKNTVFLQMIRLKPEDTAVYYCAGARRSKRHEYYLGQGTQVTVSS | high polyreactivity
2 | QVQLVESGGGLVQGGGSLRLSCAASGITFCQYAMRWYRQAPGKERELVAGIRFSGSTTYYADSVKGRFTISRDYAKITVYLQMNSLKPEDTAVYDCNVDYYSGLYYYDSWGQGTQVTVSS | low polyreactivity
3 | QVQLVESGGGLVQAGGSLRLSCAASGSNFRGYTMGWYRQAPGKERELVAAISLSGGSTYYADSVKGRFTISRDNAKNTVYLQMNSLKPEDTAVYYCAASLPWYDEFDYWGQGTQVTVSS | low polyreactivity
4 | QVQLVETGGGLVQAGGSLRLSCAASGFTFKFNTMGWYRQAPGKERELVAAISWRGGDTSYADSVKGRFTISRDNAKNTVYLQMNSLKPEDTAVYYCAASPRYPYWYDYWGQGTQVTVSS | low polyreactivity
5 | QVQLVESGGGLVQAGGRLRLSCAASGFIFKYNAMGWSRQAPGKERELVAAISRGGRTYYADSVKGRFTISRDNAKNTVYLQMNSLKPEDTAVYYCAAVSHYPAGYDYWGQGTQVTVSS | high polyreactivity
6 | QVQLVESGGGLVQAGGSLRLSCAASGFTFSYYAKGWYRQAPGKERELVARISFSGTRTYYADSVKGRFTISRDNAKKTVYLQMKSLKPEDTAVSYWARRPGAWKYVYSGDYWGQGTQVTVSS | high polyreactivity
7 | QVQLVESGGGLVHAGGSLRLSCAASGRIFTTNAMGWYRQAPGKERELVASITRSGSTYYADSVKGRFTISRDNAKNTVYLQMNSLKPEVTAVYYCAAYAYIFLDWGGYPYYLYEYDYWGQGTQVTVSS | low polyreactivity
8 | QVQLVESGGGLVQAGGSLRLSCAASGSTFTRYAMGWYRQAPGKERELVASISRSGNTYYADSVKGRFTISRDNAKNTVYLQMNSLKPEDTAVNYCAAKRKSYYSYNFDYWGQGTQVTVSS | high polyreactivity
9 | QVQVVESGGGLVQAGASLRLSCAASGRTCLHKAMGWYRQAPGKERELVAAIDSRGTTHYADSVKGRFTISRDNAKNTVYLQMNSLKPEDTAVYYCAARPTRGHWWYAYWGQGTQVTVSS | low polyreactivity
10 | QVQLVESGGGLVQAGGSLRLSCAASGRTFYPNAMGWYRQAPGKERELVAAITRSGGRTYYADSVKGRFTISRDNAKNTVYLQMNSLKPEDTAVYYCNADLYYHYYKYEYWGQGTQVTVSS | low polyreactivity
11 | QVQLVESGGGLVQAGGSLRLSCAASGRTFGPNVIGWYRQAPGKERELVAAITSGGTTYYADSVKGRFTISRDNAKNTVYLQMNSLKPEDTAVYYCNARYVYHSSFAGFDYWGQGTQVTVSS | low polyreactivity
12 | QVQLVESGGGLVQAGGSLRLSCAASGSIFYYYAMGWYRQAPGKERELVAAIDASGGSTYYADSVKGRFTISRDNAKNTVYLQMNSLKPEDTAVYYCATRSPRLSRHRRYYSWGQGTQVTVSS | high polyreactivity
13 | QVQLVESGGGLVQAGGSLRLSCAASGRPFRGYAMGWYRQAPGKDRELVAAITRSGGSTYYADSVKGRFTISRDNAKNTVYVQMTSLKPEDTAVSYCNAVRHAQSRWPYGYWGQGTQVTVSS | high polyreactivity
14 | QVQLVESGGGLVQAGGSLRLSCAASGFTFVRYAMGWYRQAPGKERELVAAITRSGGSTYYADSVKGRFTISRDNAKNTVYLQMNSLKPEDTAVYYCNARRSRSRYDYWGQGTQVTVSS | high polyreactivity
15 | QVQLVESGGGLVQAGGSLRLSCAASGYIFGVYAMGWYRQAPGKERELVAAISYGVGSTYYADSVKGRFTISRDNAKNTVYLQMNSLKPEDTAVYYCAADVFFYVYEAYLLYYWGQGTQVTVSS | low polyreactivity
16 | QVQLVESGGGLVQAGGSHRLSCAASGRTFQENGMGWYRQAPGKERELVATISQRGTSTYYADSVKGRFTISRDNAKNTVYLQMNSLKPEDTAVYYCARRRVYRWYTGDYWGQGTQVTVSS | low polyreactivity
17 | QVQLVESGGGLVQAGGSLRLSCAASGRIFNDYAMGWYRPAPGKESELVANYADSVKGRFTISRDNAKNTVYLQMNSLKPEDTAVFYCAADFPSFPDFRPEYDYWGQGTQVTVSS | low polyreactivity
18 | QVQLVESGGGLVQAGGSVRLSCAASGISFQYNALGWYRQAPGTERELVAGITWSGTSTYFADSVKGRFTISRDNAKNTVYLQLNSMKPEDTAVYYCAAVRGYRGYDYWGQGTQGTVSS | high polyreactivity
19 | QVHLVESGGGLVQAGGSLRLSCAASGSTLYWYAMGWYRQAPGKERELVARITVSGGSTSYADSVKGRFTISRDNAKNTVYLQMNSLKPEDTAVYYCAARRYWTGYYYWGQGTQVTVSS | high polyreactivity
20 | QVQLAESGGGLVQAGGSLRLSCAASGIIFYFYAMGWYRQAPGKERELVAAISGTGGRTYYADSVKGRFTISRDNAKNTVYLQMNSLKPEDTAVYYCNADDTPVPSIRFDYWGQGTQVTVSS | low polyreactivity
21 | QVQLVESGGGLVQAGGSLRLSCAASGLIFKRYGMGWYRQAPGKERELVAAISRSGGNTYYADSVKGRFTISRDNAKNTVYLQMNSLKPEDTAVYYCAATATYTYSDVDYWGQGTQVTVSS | high polyreactivity
22 | QVQLVESGGGLVQAGGSLRLSCAASGRTFGVYAMGSYRQAPGKEREFVATIRTTGSTNYADSVKGRFTISRDNAKNTVYLQMNSLKTEDTAVYYCAARQRQSKYYPYTTFTYDYWGQGTQVTVSS | high polyreactivity

Row | Sequence | polyreactivity (PSR sort gate)
23 | QVQLVESGGGLVQAGGSLRLSCAASGFIFSLYAMGWYRQAPGKERELVAAITRGGSTKYADSVKGRFTISRDNAKNTVYLQMNSLKPEDTAVYYCAARYNGKLNWGQGTQVTVSS | high polyreactivity
24 | QVQLVESGGGLVQAGGSLRLSCAASGFTFTNYAMGWYRQAPGKERELVAAINSSGSTNYADSVKGRFTISRDNAKNTVYLQMNSLKPEDTAVYYCAVDYSYWVHGFWDDYDYWGQGTQVTVSS | low polyreactivity
25 | QVQLVESGGGLVQAGGSLRLSSAASGLTLRTYAMGWYRQETGQERELVAAITSGGGSTYYADSVKGRFTISRDNSKNTVYLQLNSLNQEDTAFYYCAAKPVVRYVSFGYDYWGQGTDVTVSS | high polyreactivity
26 | QVQLVESGGGLVQAGGSLRLSCAASGIIFQQYAMGWYRQAPGKERELVAAITYSGDGTYYADSVKGRFTISRDNANNTVYLQMNSLKPEDTAVYYCAAYPRDPYKEYDYWGQGTQVTVSS | low polyreactivity
27 | LVQLVESGGGLVEAGGSLRLSWAASGIIFYYYAMGWYRQAPGKEREFVAGIRWSSGSTYYADSVKGRFTISRDNAKNTVYLQMNSLKPEDTAVYYCAAAYLSWYGGYYYWGQGTQVTVSS | low polyreactivity
28 | QVQLVESGGGLVQAGGRLRLSCAASGRIFLGYTMGSYRQAPWKERELVAAISKSGDSTYYADAVKGRFTFSSDNAKYTVFLQMNSLKPEDTAVYYCATRGYQSLRHQGTDDYWGQGTQVTVSS | high polyreactivity
29 | QVQLEESGGGLVQAGGSLRLSCAASGFTFDVYAMGWYRQAPGKERELVAAIDSGGSTNYADSVKGRFTISRDNAKNTVYLQMNSLKPEDTAVYYCAVRYWKTLSHFSYDYWGQGTQVTVSS | low polyreactivity
30 | QVQIVESGGGLVQAGGSLSLSCAASGRTFVLYVMGWYRQAPWKEREFVADINAGGGSTYYADSVKGRFTISRDNAKNTVYLQMNSLKPEDTAVYYCAATRDLGQLFRFGYWGQGTQVTVSS | low polyreactivity
31 | QVQLVESGGGLVQAGGSLRLSCAASGFTFYRNARGWYRQAPGKERELVAAISISGGSTYYADSVKGRFTISRDNAKNTVYLQMNSLKPEDTAVYYCAAYYYRDRYSRVKVTYWGQGTQVTVSS | high polyreactivity
32 | QVQLVDSGGGLVQAGGSLRLRCAASGSTYHYAMAGYRQAPGKERELVASITWRGDTTYYADSVKARFTISRDNAMNTVYFHMNSLKPEDSAVYYCAAYVRRCFAWGQGTQVTVSS | high polyreactivity
33 | QVQLVESGGGLVQAGGSLRLSCAASGRIFTDYAMGWYRQAPGKERELVAAISSGGSTYYADSVKGRFTISRDNAKNTVYLQMNSLKPEDTAVYFCAAELFYGRSSSGYYYWGQGTQVTVSS | high polyreactivity
34 | QVQLVESGGGLVQAGGSLRLSCDASGFIFYYNAMGWYRQAPGKESELVAGISWDGSTYYADSVKGRFTISRDNAKNTVYLQMNSLKPEETAVYYCAAALLDDYFDLFIFGYWGQGTQVTVSS | low polyreactivity
35 | QVQLVESGVGLVQAAGSLRLSCAASGRIFKYYAMGWYRQAPGKERELVATISRGSRTNYADSVKGRFTISRDNAKNTVYLQMNSLKPEDTAVYYCAAQRLSASRPYGYWGQGTQVTVSS | high polyreactivity
36 | QVQLVESGGGLVQAGGSLRLSCAASGITFGWYAMGLYRQAPGKERELVAAISTGSSTYYADSVKGRFTISRDNAKNTVYLQMNSLKPEDTAVYYCNAYPGPSGTLYVTPYDYWGQGTQVTVSS | high polyreactivity
37 | QVQLVESGGGLVQAGGSLRLSCAASGSTLWWYDMGWYRQAPGKERELVAAINSGGSTNYADSVKGRFTISRDNAKNTVYLQMNSLKPEDTAVYYCNTDGEVTYDYWGQGTQVTVSS | low polyreactivity
38 | QVQLVESGGGLVQAGGSLRLSCAASGRTFGANAMGWYRQAPGKERELVAASTQDGGSTYYADSVKGRFTISRDNAKNTVYLQMNSLKPEDTAVYYCAADLVVFVQFDVAVDYYYWGQGTQVTVSS | low polyreactivity
39 | QVQLVESGGGLVQAGGSLRLSCAASGIIFSHYAMGWYRQAPGKERELVAAISSRGGSTYYADSVKGRFTISRDNAKNTVYLQMNSLKPEDTAVYYCNAKWTSHGTYAEDYWGQGTQVTVSS | high polyreactivity
40 | QVQLVESGGGLVQAGGSLRLSCAASGSISAGNAMGWYRQAPGKERELVAAISISAGRTYYADSVKGRFTISRDNAKNTVYLQMNSLKPEDTAVYYCNAYSSYIKYDYWGQGTQVTVSS | high polyreactivity
41 | QVQLVESGGGLVQAGGSLRLSCAASGFIFSWYAMGWSRQAPGKERELVAAISHDGGSTYYADSVKGRFTISRDNAKNTVYLQMNSLKPEDTAVYYCAAAFRAAGRTVRYYWGQGTQVTVSS | high polyreactivity
42 | QVQHVESGGGLVQAGVSLRLSCAASGFTFHRNAMGWSTQAPGKERELLAAITMKGGSSTYYADSVKGRFTISRDNAKNTVYLQMNSLKPEDTAVYYCARDSYSYTFSKNSDPAEYDYWGQGTQVTLSS | low polyreactivity
43 | QVQLVESGGGLVQAGGSLRLSCAASGFTFYRNAMGWYRPAPGKERELVAAISGRGGGTYYADSVKGRFTISRDNAKNTVYLQMNSLKPEDTAVYYCNARLSWSAFGYWGQGTQVTVSS | high polyreactivity
